In the supplement of paper PMC11316812:
± gives the standard deviation of the averaged measurements.

Legend:
hTERT-HMEC = test: percentage of EdU-negative (G0-arrested) nuclei per well, 72 h; higher = more G0 arrest; details: reference: sequence is the full UniProt precursor, the tested protein was the secreted form or ectodomain
MCF7 = test: as above; details: reference: sequence is the full UniProt precursor, the tested protein was the secreted form or ectodomain
[1] = protein concentration 0.0135 µM
[2] = protein concentration 0.0225 µM
[3] = protein concentration 0.0357143 µM
[4] = protein concentration 0.357143 µM
[5] = protein concentration 0.0257143 µM
[6] = protein concentration 0.257143 µM
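Note: secreted proteins added to cultured cells, EdU pulse at the end, nuclei found by Hoechst imaging, EdU status from nuclear versus surrounding ring intensity ratio, PBS as neutral control.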

With “MWLLVSVILISRISSVGGEATFCDFPKINHGILYDEEKYKPFSQVPTGEVFYYSCEYNFVSPSKSFWTRITCTEEGWSPTPKCLRLCFFPFVENGHSESSGQTHLEGDTVQIICNTGYRLQNNENNISCVERGWSTPPKCRSTDTSCVNPPTVQNAHILSRQMSKYPSGERVRYECRSPYEMFGDEEVMCLNGNWTEPPQCKDSTGKCGPPPPIDNGDITSFPLSVYAPASSVEYQCQNLYQLEGNKRITCRNGQWSEPPKCLHPCVISREIMENYNIALRWTAKQKLYLRTGESAEFVCKRGYRLSSRSHTLRTTCWDGKLEYPTCAKR” the “percentage of EdU-negative” value (hTERT-HMEC; [1]) was 5.26 ± 0.45%, the “percentage of EdU-negative” value (hTERT-HMEC; protein concentration 0.135 µM) was 5.53 ± 0.48% and the “percentage of EdU-negative” value (MCF7; [1]) was 25.1 ± 1.9%. The “percentage of EdU-negative” value (MCF7; protein concentration 0.135 µM) was 25.3 ± 0.89%.

With “MWLPRVSSTAVTALLLAQTFLLLFLVSRPGPSSPAGGEARVHVLVLSSWRSGSSFVGQLFNQHPDVFYLMEPAWHVWTTLSQGSAATLHMAVRDLVRSVFLCDMDVFDAYLPWRRNLSDLFQWAVSRALCSPPACSAFPRGAISSEAVCKPLCARQSFTLAREACRSYSHVVLKEVRFFNLQVLYPLLSDPALNLRIVHLVRDPRAVLRSREQTAKALARDNGIVLGTNGTWVEADPGLRVVREVCRSHVRIAEAATLKPPPFLRGRYRLVRFEDLAREPLAEIRALYAFTGLSLTPQLEAWIHNITHGSGPGARREAFKTSSRNALNVSQAWRHALPFAKIRRVQELCAGALQLLGYRPVYSEDEQRNLALDLVLPRGLNGFTWASSTASHPRN [Q9GZX3]” the “percentage of EdU-negative” value (hTERT-HMEC; [2]) was 5.21 ± 0.9%, the “percentage of EdU-negative” value (hTERT-HMEC; protein concentration 0.225 µM) was 23.2 ± 3.6% and the “percentage of EdU-negative” value (MCF7; [2]) was 24.3 ± 0.37%. The “percentage of EdU-negative” value (MCF7; protein concentration 0.225 µM) was 31 ± 0.51%.

For “MWLRAFILATLSASAAWGHPSSPPVVDTVHGKVLGKFVSLEGFAQPVAIFLGIPFAKPPLGPLRFTPPQPAEPWSFVKNATSYPPMCTQDPKAGQLLSELFTNRKENIPLKLSEDCLYLNIYTPADLTKKNRLPVMVWIHGGGLMVGAASTYDGLALAAHENVVVVTIQYRLGIWGFFSTGDEHSRGNWGHLDQVAALRWVQDNIASFGGNPGSVTIFGESAGGESVSVLVLSPLAKNLFHRAISESGVALTSVLVKKGDVKPLAEQIAITAGCKTTTSAVMVHCLRQKTEEELLETTLKMKFLSLDLQGDPRESQPLLGTVIDGMLLLKTPEELQAERNFHTVPYMVGINKQEFGWLIPMQLMSYPLSEGQLDQKTAMSLLWKSYPLVCIAKELIPEATEKYLGGTDDTVKKKDLFLDLIADVMFGVPSVIVARNHRDAGAPTYMYEFQYRPSFSSDMKPKTVIGDHGDELFSVFGAPFLKEGASEEEIRLSKMVMKFWANFARNGNPNGEGLPHWPEYNQKEGYLQIGANTQAAQKLKDKEVAFWTNLFAKKAVEKPPQTEHIEL”, the “percentage of EdU-negative” value (hTERT-HMEC; [3]) was 4.96 ± 0.78%, the “percentage of EdU-negative” value (hTERT-HMEC; [4]) was 6.05 ± 0.03% and the “percentage of EdU-negative” value (MCF7; [3]) was 23.32 ± 0.21%. For the same sequence, the “percentage of EdU-negative” value (MCF7; [4]) was 24.5 ± 1.9%.

For “MWLRLGPPSLSLSPKPTVGRSLCLTLWFLSLALRASTQAPAPTVNTHFGKLRGARVPLPSEILGPVDQYLGVPYAAPPIGEKRFLPPEPPPSWSGIRNATHFPPVCPQNIHTAVPEVMLPVWFTANLDIVATYIQEPNEDCLYLNVYVPTEDVKRISKECARKPNKKICRKGGSGAKKQGEDLADNDGDEDEDIRDSGAKPVMVYIHGGSYMEGTGNMIDGSILASYGNVIVITLNYRVGVLGFLSTGDQAAKGNYGLLDQIQALRWVSENIAFFGGDPRRITVFGSGIGASCVSLLTLSHHSEGLFQRAIIQSGSALSSWAVNYQPVKYTSLLADKVGCNVLDTVDMVDCLRQKSAKELVEQDIQPARYHVAFGPVIDGDVIPDDPEILMEQGEFLNYDIMLGVNQGEGLKFVEGVVDPEDGVSGTDFDYSVSNFVDNLYGYPEGKDTLRETIKFMYTDWADRDNPETRRKTLVALFTDHQWVEPSVVTADLHARYGSPTYFYAFYHHCQSLMKPAWSDAAHGDEVPYVFGVPMVGPTDLFPCNFSKNDVMLSAVVMTYWTNFAKTGDPNKPVPQDTKFIHTKANRFEEVAWSKYNPRDQLYLHIGLKPRVRDHYRATKVAFWKHLVPHLYNLHDMFHYTSTTTKVPPPDTTHSSHITRRPNGKTWSTKRPAISPAYSNENAQGSWNGDQDAGPLLVENPRDYSTELSVTIAVGASLLFLNVLAFAALYYRKDKRRQEPLRQPSPQRGAGAPELGAAPEEELAALQLGPTHHECEAGPPHDTLRLTALPDYTLTLRRSPDDIPLMTPNTITMIPNSLVGLQTLHPYNTFAAGFNSTGLPHSHSTTRV [Q9NZ94]”, the “percentage of EdU-negative” value (hTERT-HMEC; [5]) was 5.8 ± 1.5%, the “percentage of EdU-negative” value (hTERT-HMEC; [6]) was 10.2 ± 2.3% and the “percentage of EdU-negative” value (MCF7; [5]) was 24.2 ± 1.1%. The “percentage of EdU-negative” value (MCF7; [6]) was 24.1 ± 1.1%.

“MWNMLIVAMCLALLGCLQAQELQGHVSIILLGATGDLAKKYLWQGLFQLYLDEAGRGHSFSFHGAALTAPKQGQELMAKALESLSCPKDMAPSHCAEHKDQFLQLSQYRQLKTAEDYQALNKDIEAQLQHAGLREAGRIFYFSVPPFAYEDIARNINSSCRPGPGAWLRVVLEKPFGHDHFSAQQLATELGTFFQEEEMYRVDHYLGKQAVAQILPFRDQNRKALDGLWNRHHVERVEIIMKETVDAEGRTSFYEEYGVIRDVLQNHLTEVLTLVAMELPHNVSSAEAVLRHKLQVFQALRGLQRGSAVVGQYQSYSEQVRRELQKPDSFHSLTPTFAAVLVHIDNLRWEGVPFILMSGKALDERVGYARILFKNQACCVQSEKHWAAAQSQCLPRQLVFHIGHGDLGSPAVLVSRNLFRPSLPSSWKEMEGPPGLRLFGSPLSDYYAYSPVRERDAHSVLLSHIFHGRKNFFITTENLLASWNFWTPLLESLAHKAPRLYPGGAENGRLLDFEFSSGRLFFSQQQPEQLVPGPGPAPMPSDFQVLRAKYRESPLVSAWSEELISKLANDIEATAVRAVRRFGQFHLALSGGSSPVALFQQLATAHYGFPWAHTHLWLVDERCVPLSDPESNFQGLQAHLLQHVRIPYYNIHPMPVHLQQRLCAEEDQGAQIYAREISALVANSSFDLVLLGMGADGHTASLFPQSPTGLDGEQLVVLTTSPSQPHRRMSLSLPLINRAKKVAVLVMGRMKREITTLVSRVGHEPKKWPISGVLPHSGQLVWYMDYDAFLG” was tested, and the “percentage of EdU-negative” value (hTERT-HMEC; [2]) was 5.45 ± 1.2%, the “percentage of EdU-negative” value (hTERT-HMEC; protein concentration 0.225 µM) was 7.4 ± 1.2% and the “percentage of EdU-negative” value (MCF7; [2]) was 23.3 ± 2.2%. The “percentage of EdU-negative” value (MCF7; protein concentration 0.225 µM) was 25.2 ± 1.6%.
